According to US20240400621A1, “PEPTIDES FOR METABOLIC SYNDROME” (ALPARIS, S.A. de C.V., priority 2021, published 2024):

Columns and labels:
[1] = target: human Toll-like receptor 2 (hTLR2) on HEK-Blue hTLR2 cells (human (printed as hTLR2), UniProt O60603 21-784); test: cell-based or functional assay
[2] = Body weight of mice on high-fat diet (DAG) with intragastric peptide for 12 weeks; format: in vivo, mice (C57BL/6JN)
Protocol: (§1) For all the in vivo testing, male mice of the C57BL/6JN strain between 8 to 10 weeks of age were used, housed in groups of 3 to 5 mice per cage with food and water ad libitum in ventilated racks, and whose microbiota were unified for 4 weeks.
(§2) The mice received either 200 μL of a phosphate buffer solution (PBS) at pH 7.5 (as a vehicle), or 200 μL of the PBS solution, with each of the intragastric treatments daily for 12 weeks. They were fed either a Normal Diet (DN, Harlan, Teklad 2018SX) with 18% of the calories coming from fat, or a High-Fat Diet (DAG, Research Diets, D12491), with 60% of the calories coming from fat.
(§3) All the mice were randomly divided into five experimental groups in order to study the effect of SEQ ID NO: 3 and SEQ ID NO: 2 correctly: • Group 1—Mice with DN that received 200 μl of PBS intragastrically. • Group 2—Mice with DAG that received 200 μl of PBS intragastrically. • Group 3—Mice with DAG that received 200 μl of PBS with SEQ ID NO: 3 intragastrically at a dose of: 2.5 μg/mouse. • Group 4—Mice with DAG that received 200 μl of PBS with SEQ ID NO: 2 intragastrically at a dose of 0.6 μg/mouse (high dose). • Group 5—Mice with DAG that received 200 μl of PBS with SEQ ID NO: 2 intragastrically at a dose of 0.2 μg/mouse (low dose).
The animal weights and feed intakes were recorded weekly.
To determine the metabolic status of the animals before starting the experiment, weight, basal glucose levels, glucose tolerance, and insulin resistance were recorded.

mice fed a high-fat diet = test: Insulin resistance test (PRI) in mice fed a high-fat diet; format: in vivo, mice (C57BL/6JN); conditions: 12 weeks; intragastric daily; SEQ ID NO: 3 2.5 μg/mouse, SEQ ID NO: 2 0.6 or 0.2 μg/mouse
Protocol: as §1
as §2, with “fat. […]” for “fat.”
The mice were subjected to fasting for 6 hours and the baseline glucose values were determined, as described above. Subsequently, the mice received an intraperitoneal injection of 1 mU of insulin per gram of body weight, and blood glucose values were recorded at 15, 30, 60, and 120 minutes after administration. The area under the curve (AUC) of the insulin resistance test was calculated considering the glucose decrease between time T0 and T15 using the absolute glucose values, as shown in FIGS. 20A and 20B.

insulin = test: Insulin levels (secretion in response to glucose) in mice fed a high-fat diet; format: in vivo, mice (C57BL/6JN); conditions: 12 weeks; versus DAG group
Protocol: as §1, §2, §3
This means that the peptide SEQ ID NO: 3 improves insulin sensitivity, preventing insulin resistance from developing.

adipose tissue = test: Cellular infiltrate / inflammatory process in adipose tissue of mice fed a high-fat diet; format: in vivo, mice (C57BL/6JN)
Protocol: as §1, §2, §3
(§4) To determine the effect of the peptides SEQ ID NO: 2 and SEQ ID NO: 3 in attenuating the inflammatory process in adipose tissue, the cellular infiltrate of the adipose tissue of the mice was quantified after they had been fed DAG.

IL-1B = test: Circulating IL-1B levels in mice fed a high-fat diet; format: in vivo, mice (C57BL/6JN); conditions: 12 weeks; versus DAG; including SEQ ID NO: 2 at low doses
Protocol: as §1
as §2, with “fat. […]” for “fat.”
as §4

TNFα = test: Circulating TNFα levels in mice fed a high-fat diet; format: in vivo, mice (C57BL/6JN); conditions: 12 weeks; versus DAG; including SEQ ID NO: 2 at low doses
Protocol: as §1
as §2, with “fat. […]” for “fat.”
as §4

IL-6 = IL-6 levels in mice fed a high-fat diet; format: in vivo, mice (C57BL/6JN); conditions: 12 weeks; animals fed DAG
Protocol: as §1, §2, §3

leptin = test: Leptin levels in mice fed a high-fat diet; format: in vivo, mice (C57BL/6JN); conditions: 12 weeks; compared to mice fed only DAG
Protocol: as §1, §2
as §3, with “(low dose). […]” for “(low dose).”

[3] = Aggregation during ultrafiltration / buffer change; format: physicochemical
Description: The protein of SEQ ID NO. 1, expressed in recombinant form in this invention, contains a tag of six residues of histidine at the carboxyl terminal end, allowing it to be purified by immobilized metal cation affinity chromatography (IMAC). Purification was initially evaluated with the soluble fractions of the two strains that were used for recombinant production, obtained by enzymatic lysis and sonication. The first approach with the Ni-NTA Agarose resin allowed for the recovery of 6% of the SEQ ID NO. 1 with a purity of 50-80%. An FPLC Ákta Prime chromatographic system and an XK16/20 column packed with 13 mL of Chelating Sepharose Fast Flow-Ni^+2 resin were used for purification. A minimum imidazole concentration of 30 mM was defined in both the sample to be injected and the equilibrium buffer. Elution was performed with 500 mM imidazole at 6.5 mL/min, resulting in a minimum recovery of 80% of SEQ ID No. 1 with 82% purity. The ultrafiltration of the tangential flow of SEQ ID NO. 1 during the chromatography stage, in order to concentrate and change the buffer, negatively impacted protein quality. However, the dialysis of EQ ID NO.
However, the aggregation of SEQ ID NO. […] This was corroborated by the SDSPAGE analysis, in which the remaining protein in the soluble fraction presented fragments of lower molecular weight than that of SEQ ID NO. 1, but greater than 25 kDa. On the other hand, the precipitate turned out to be denatured SEQ ID NO. 1, but not degraded.
Finally, SEQ ID NO. 4 and SEQ ID NO.

Chain of human Toll-like receptor 2 (hTLR2) on HEK-Blue hTLR2 cells (O60603 21-784): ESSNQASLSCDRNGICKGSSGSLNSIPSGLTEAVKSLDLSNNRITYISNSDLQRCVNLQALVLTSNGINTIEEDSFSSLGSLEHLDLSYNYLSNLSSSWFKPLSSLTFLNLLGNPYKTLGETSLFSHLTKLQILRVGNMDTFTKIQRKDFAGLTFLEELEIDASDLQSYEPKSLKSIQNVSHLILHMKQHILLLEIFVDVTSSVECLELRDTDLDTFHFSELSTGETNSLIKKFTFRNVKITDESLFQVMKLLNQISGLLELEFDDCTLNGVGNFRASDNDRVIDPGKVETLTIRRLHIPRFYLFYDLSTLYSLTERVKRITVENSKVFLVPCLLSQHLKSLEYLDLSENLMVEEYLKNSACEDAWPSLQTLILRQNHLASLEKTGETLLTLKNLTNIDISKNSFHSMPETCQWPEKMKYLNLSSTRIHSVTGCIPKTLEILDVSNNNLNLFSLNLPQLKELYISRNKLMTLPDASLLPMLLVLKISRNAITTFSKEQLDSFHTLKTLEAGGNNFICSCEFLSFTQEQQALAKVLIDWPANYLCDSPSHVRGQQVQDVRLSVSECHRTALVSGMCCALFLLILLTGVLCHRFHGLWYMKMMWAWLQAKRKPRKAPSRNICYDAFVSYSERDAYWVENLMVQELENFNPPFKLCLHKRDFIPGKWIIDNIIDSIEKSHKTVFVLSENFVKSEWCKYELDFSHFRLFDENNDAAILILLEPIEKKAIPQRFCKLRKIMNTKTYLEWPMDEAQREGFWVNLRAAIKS

- EC50 [1]: 25.9 nM
B1: peptide SEQ ID NO: 3 (carboxyl terminal domain of SEQ ID NO: 1) (peptide)
chain: QLPIETPANNPEESDEADQAPWTPMPLEIAFQGDRESVLKAMNAITGMQDYLFTVNSIRIRNERMMPPPIANPAAAKPAAAQPATGAASLTPADEAAAPAAPAIQQVIKPYMGKEQVFVQVSLNLVHFNQPKAQEPSED
- Average weight ([2]; 0 weeks (initial state), DAG + SEQ ID NO: 3 group): 21.4 grams
- Average weight ([2]; 12 weeks, DAG + SEQ ID NO: 3, 2.5 μg/mouse intragastric daily): 37.9 grams
- insulin sensitivity (AUC of insulin resistance test) versus DAG group (mice fed a high-fat diet): improve insulin sensitivity
- insulin secretion in response to glucose administration (insulin): statistically significant reduction in insulin secretion
- cellular infiltrate of adipose tissue (adipose tissue; 12 weeks, versus DAG group): prevented the increase in cellular infiltrate induced by DAG
- inflammatory process in adipose tissue (adipose tissue; SEQ ID NO:2 in high or low doses): attenuate the inflammatory process in adipose tissue
- circulating levels of IL-1B (IL-1B): prevented the increase in the circulating levels of IL-1B
- circulating levels of TNFα (TNFα): prevented the increase in the circulating levels
- IL-6 levels (IL-6): dramatic decrease in IL-6 levels
- leptin secretion (leptin): decrease in leptin secretion
- aggregation in ultrafiltration operations [3]: no visible aggregation
